Experimental data: patent publication US8933039
Positions count from the first letter of the chain named.

Columns and labels:
[Glu33]hGLP-2(1-33) = target: T1, [Glu33]hGLP-2(1-33)
T1 chain: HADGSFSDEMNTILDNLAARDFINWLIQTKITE

[Tyr1]ratGLP-2(1-33) = target: T2, [Tyr1]ratGLP-2(1-33)
T2 chain: T1 chain with H1Y, A19T, E33D

[Val2]GLP-2(1-33) = target: T3, [Val2]GLP-2(1-33)
T3 chain: T1 chain with A2V, A19T, E33D

[Asp2]hGLP-2(1-33) = target: T4, [Asp2]hGLP-2(1-33)
T4 chain: T1 chain with A2D, E33D

[D-Ala2]hGLP-2(1-33) = target: T5, [D-Ala2]hGLP-2(1-33)
T5 chain: T1 chain with E33D

[Pro3]hGLP-2(1-33) = target: T6, [Pro3]hGLP-2(1-33)
T6 chain: T1 chain with D3P, E33D

[Asn2]hGLP-2(1-33) = target: T7, [Asn2]hGLP-2(1-33)
T7 chain: T1 chain with A2N, E33D

[Ser2]hGLP-2(1-33) = target: T8, [Ser2]hGLP-2(1-33)
T8 chain: T1 chain with A2S, E33D

[Ala5, Ala7]hGLP-2(1-33) = target: T9, [Ala5, Ala7]hGLP-2(1-33)
T9 chain: T1 chain with S5A, S7A, E33D

[Ala4]ratGLP-2(1-33) = target: T10, [Ala4]ratGLP-2(1-33)
T10 chain: T1 chain with G4A, A19T, E33D

Ac-ratGLP-2(1-33) = target: T11, Ac-ratGLP-2(1-33)
T11 chain: T1 chain with A19T, E33D

[Asp1]hGLP-2(1-33) = target: T12, [Asp1]hGLP-2(1-33)
T12 chain: T1 chain with H1D, E33D

ratGLP-2(1-33) = target: T13, ratGLP-2(1-33)
T13 chain: T1 chain with A19T, E33D

[Phe2]hGLP-2(1-33) = target: T14, [Phe2]hGLP-2(1-33)
T14 chain: T1 chain with A2F, E33D

[Glu2]hGLP-2(1-33) = target: T15, [Glu2]hGLP-2(1-33)
T15 chain: T1 chain with A2E, E33D

[Thr2]hGLP-2(1-33) = target: T16, [Thr2]hGLP-2(1-33)
T16 chain: T1 chain with A2T, E33D

[Gly2]ratGLP-2(1-33) = target: T17, [Gly2]ratGLP-2(1-33)
T17 chain: T1 chain with A2G, A19T, E33D

[Nval2]hGLP-2(1-33) = target: T18, [Nval2]hGLP-2(1-33)
T18 chain: T1 chain with A2X, E33D

[Gln2]hGLP-2(1-33) = target: T19, [Gln2]hGLP-2(1-33)
T19 chain: T1 chain with A2Q, E33D

[Tyr25]hGLP-2(1-33) = target: T20, [Tyr25]hGLP-2(1-33)
T20 chain: T1 chain with W25Y, E33D

[aAbu2]hGLP-2(1-33) = target: T21, [aAbu2]hGLP-2(1-33)
T21 chain: T1 chain with A2X, E33D

[PhGly2]hGLP-2(1-33) = target: T22, [PhGly2]hGLP-2(1-33)
T22 chain: T1 chain with A2X, E33D

[1] = target: T23, [Gly2, Tyr34]hGLP-2(1-34)
T23 chain: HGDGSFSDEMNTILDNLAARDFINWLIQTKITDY

[Pen2]hGLP-2(1-33) = target: T24, [Pen2]hGLP-2(1-33)
T24 chain: T1 chain with A2X, E33D

[Arg30]hGLP-2(1-33) = target: T25, [Arg30]hGLP-2(1-33)
T25 chain: T1 chain with K30R, E33D

[Pro1]hGLP-2(1-33) = target: T26, [Pro1]hGLP-2(1-33)
T26 chain: T1 chain with H1P, E33D

[Tyr1, Gly2]hGLP-2(1-33) = target: T27, [Tyr1, Gly2]hGLP-2(1-33)
T27 chain: T1 chain with H1Y, A2G, E33D

[Pro2]hGLP-2(1-33) = target: T28, [Pro2]hGLP-2(1-33)
T28 chain: T1 chain with A2P, E33D

[Tyr2]hGLP-2(1-33) = target: T29, [Tyr2]hGLP-2(1-33)
T29 chain: T1 chain with A2Y, E33D

[Ser2,Gln3]hGLP-2(1-33) = target: T30, [Ser2,Gln3]hGLP-2(1-33)
T30 chain: T1 chain with A2S, D3Q, E33D

[Met2]hGLP-2(1-33) = target: T31, [Met2]hGLP-2(1-33)
T31 chain: T1 chain with A2M, E33D

[Val2]hGLP-2(1-33) = target: T32, [Val2]hGLP-2(1-33)
T32 chain: T1 chain with A2V, E33D

[2] = target: T33, [Gly2, Arg34]hGLP-2(1-34)
T33 chain: T23 chain with Y34R

[Gly2,Ala3]hGLP-2(1-33) = target: T34, [Gly2,Ala3]hGLP-2(1-33)
T34 chain: T1 chain with A2G, D3A, E33D

[desNH2Tyr1]hGLP-2(1-33) = target: T35, [desNH2Tyr1]hGLP-2(1-33)
T35 chain: T1 chain with H1Y, E33D

[Gly2,Ala4]hGLP-2(1-33) = target: T36, [Gly2,Ala4]hGLP-2(1-33)
T36 chain: T1 chain with A2G, G4A, E33D

[Gly2,Ala5]hGLP-2(1-33) = target: T37, [Gly2,Ala5]hGLP-2(1-33)
T37 chain: T1 chain with A2G, S5A, E33D

[bAla2]hGLP-2(1-33) = target: T38, [bAla2]hGLP-2(1-33)
T38 chain: T1 chain with A2X, E33D

[Ile2]hGLP-2(1-33) = target: T39, [Ile2]hGLP-2(1-33)
T39 chain: T1 chain with A2I, E33D

[Glu3]ratGLP-2(1-33) = target: T40, [Glu3]ratGLP-2(1-33)
T40 chain: T1 chain with D3E, A19T, E33D

[Arg-l]ratGLP-2(-1-33) = target: T41, [Arg-l]ratGLP-2(-1-33)
T41 chain: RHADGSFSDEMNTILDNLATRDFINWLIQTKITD

[tBuGly2]hGLP-2 = target: T42, [tBuGly2]hGLP-2
T42 chain: T1 chain with A2X, E33D

[Phe25]hGLP-2(1-33) = target: T43, [Phe25]hGLP-2(1-33)
T43 chain: T1 chain with W25F, E33D

[Ala1,Gly2]hGLP-2(1-33) = target: T44, [Ala1,Gly2]hGLP-2(1-33)
T44 chain: T1 chain with H1A, A2G, E33D

hGLP-2(1-33) = target: T45, hGLP-2(1-33)
T45 chain: T1 chain with E33D

[His2]hGLP-2(1-33) = target: T46, [His2]hGLP-2(1-33)
T46 chain: T1 chain with A2H, E33D

[Gly2,Ala24]hGLP-2(1-33) = target: T47, [Gly2,Ala24]hGLP-2(1-33)
T47 chain: T1 chain with A2G, N24A, E33D

[Aib2]hGLP-2(1-33) = target: T48, [Aib2]hGLP-2(1-33)
T48 chain: T1 chain with A2X, E33D

[Lys2]hGLP-2(1-33) = target: T49, [Lys2]hGLP-2(1-33)
T49 chain: T1 chain with A2K, E33D

[DAla2]ratGLP-2(1-33) = target: T50, [DAla2]ratGLP-2(1-33)
T50 chain: T1 chain with A19T, E33D

[3] = target: T51, [Arg-2,Arg-1]ratGLP-2(2-33)
T51 chain: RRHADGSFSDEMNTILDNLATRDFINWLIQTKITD

[Gly2]hGLP-2(1-33) = target: T52, [Gly2]hGLP-2(1-33)
T52 chain: T1 chain with A2G, E33D

B1: human placental DPP-IV (Calbiochem, La Jolla, Calif., cat. #317624) (protein)
chain: MKTPWKVLLGLLGAAALVTIITVPVVLLNKGTDDATADSRKTYTLTDYLKNTYRLKLYSLRWISDHEYLYKQENNILVFNAEYGNSSVFLENSTFDEFGHSINDYSISPDGQFILLEYNYVKQWRHSYTASYDIYDLNKRQLITEERIPNNTQWVTWSPVGHKLAYVWNNDIYVKIEPNLPSYRITWTGKEDIIYNGITDWVYEEEVFSAYSALWWSPNGTFLAYAQFNDTEVPLIEYSFYSDESLQYPKTVRVPYPKAGAVNPTVKFFVVNTDSLSSVTNATSIQITAPASMLIGDHYLCDVTWATQERISLQWLRRIQNYSVMDICDYDESSGRWNCLVARQHIEMSTTGWVGRFRPSEPHFTLDGNSFYKIISNEEGYRHICYFQIDKKDCTFITKGTWEVIGIEALTSDYLYYISNEYKGMPGGRNLYKIQLSDYTKVTCLSCELNPERCQYYSVSFSKEAKYYQLRCSGPGLPLYTLHSSVNDKGLRVLEDNSALDKMLQNVQMPSKKLDFIILNETKFWYQMILPPHFDKSKKYPLLLDVYAGPCSQKADTVFRLNWATYLASTENIIVASFDGRGSGYQGDKIMHAINRRLGTFEVEDQIEAARQFSKMGFVDNKRIAIWGWSYGGYVTSMVLGSGSGVFKCGIAVAPVSRWEYYDSVYTERYMGLPTPEDNLDHYRNSTVMSRAENFKQVEYLLIHGTADDNVHFQQSAQISKALVDVGVDFQAMWYTDEDHGIASSTAHQHIYTHMSHFIKQCFSLP
- % Cleaved by DPP-IV ([Glu33]hGLP-2(1-33)): 55%
- % Cleaved by DPP-IV ([Tyr1]ratGLP-2(1-33)): 100%
- % Cleaved by DPP-IV ([Val2]GLP-2(1-33)): 0%
- % Cleaved by DPP-IV ([Asp2]hGLP-2(1-33)): 0%
- % Cleaved by DPP-IV ([D-Ala2]hGLP-2(1-33)): 0%
- % Cleaved by DPP-IV ([Pro3]hGLP-2(1-33)): 0%
- % Cleaved by DPP-IV ([Asn2]hGLP-2(1-33)): 0%
- % Cleaved by DPP-IV ([Ser2]hGLP-2(1-33)): 0%
- % Cleaved by DPP-IV ([Ala5, Ala7]hGLP-2(1-33)): 77%
- % Cleaved by DPP-IV ([Ala4]ratGLP-2(1-33)): 72%
- % Cleaved by DPP-IV (Ac-ratGLP-2(1-33)): 0%
- % Cleaved by DPP-IV ([Asp1]hGLP-2(1-33)): 0%
- % Cleaved by DPP-IV (ratGLP-2(1-33)): 58%
- extent of cleavage after 24 hour incubation (RP-HPLC) (ratGLP-2(1-33)): 22% of the control peptide, rGLP-2, was cleaved by DPP-IV
- % Cleaved by DPP-IV ([Phe2]hGLP-2(1-33)): 0%
- % Cleaved by DPP-IV ([Glu2]hGLP-2(1-33)): 0%
- % Cleaved by DPP-IV ([Thr2]hGLP-2(1-33)): 0%
- % Cleaved by DPP-IV ([Gly2]ratGLP-2(1-33)): 0%
- extent of cleavage after 24 hour incubation (RP-HPLC) ([Gly2]ratGLP-2(1-33)): No cleavage products were detected
- % Cleaved by DPP-IV ([Nval2]hGLP-2(1-33)): 0%
- % Cleaved by DPP-IV ([Gln2]hGLP-2(1-33)): 0%
- % Cleaved by DPP-IV ([Tyr25]hGLP-2(1-33)): 48%
- % Cleaved by DPP-IV ([aAbu2]hGLP-2(1-33)): 49%
- % Cleaved by DPP-IV ([PhGly2]hGLP-2(1-33)): 0%
- % Cleaved by DPP-IV [1]: 0%
- % Cleaved by DPP-IV ([Pen2]hGLP-2(1-33)): 20%
- % Cleaved by DPP-IV ([Arg30]hGLP-2(1-33)): 59%
- % Cleaved by DPP-IV ([Pro1]hGLP-2(1-33)): 0%
- % Cleaved by DPP-IV ([Tyr1, Gly2]hGLP-2(1-33)): 0%
- % Cleaved by DPP-IV ([Pro2]hGLP-2(1-33)): 16%
- % Cleaved by DPP-IV ([Tyr2]hGLP-2(1-33)): 0%
- % Cleaved by DPP-IV ([Ser2,Gln3]hGLP-2(1-33)): 0%
- % Cleaved by DPP-IV ([Met2]hGLP-2(1-33)): 0%
- % Cleaved by DPP-IV ([Val2]hGLP-2(1-33)): 13%
- % Cleaved by DPP-IV [2]: 0%
- % Cleaved by DPP-IV ([Gly2,Ala3]hGLP-2(1-33)): 0%
- % Cleaved by DPP-IV ([desNH2Tyr1]hGLP-2(1-33)): 15%
- % Cleaved by DPP-IV ([Gly2,Ala4]hGLP-2(1-33)): 0%
- % Cleaved by DPP-IV ([Gly2,Ala5]hGLP-2(1-33)): 0%
- % Cleaved by DPP-IV ([bAla2]hGLP-2(1-33)): 0%
- % Cleaved by DPP-IV ([Ile2]hGLP-2(1-33)): 0%
- % Cleaved by DPP-IV ([Glu3]ratGLP-2(1-33)): 50%
- % Cleaved by DPP-IV ([Arg-l]ratGLP-2(-1-33)): 0%
- % Cleaved by DPP-IV ([tBuGly2]hGLP-2): 0%
- % Cleaved by DPP-IV ([Phe25]hGLP-2(1-33)): 54%
- % Cleaved by DPP-IV ([Ala1,Gly2]hGLP-2(1-33)): 0%
- % Cleaved by DPP-IV (hGLP-2(1-33)): 60%
- % Cleaved by DPP-IV ([His2]hGLP-2(1-33)): 0%
- % Cleaved by DPP-IV ([Gly2,Ala24]hGLP-2(1-33)): 0%
- % Cleaved by DPP-IV ([Aib2]hGLP-2(1-33)): 0%
- % Cleaved by DPP-IV ([Lys2]hGLP-2(1-33)): 0%
- % Cleaved by DPP-IV ([DAla2]ratGLP-2(1-33)): 0%
- extent of cleavage after 24 hour incubation (RP-HPLC) ([DAla2]ratGLP-2(1-33)): No cleavage products were detected
- % Cleaved by DPP-IV [3]: 0%
- % Cleaved by DPP-IV ([Gly2]hGLP-2(1-33)): 0%
